According to patent publication US20260207704A1, “STAPLED PEPTIDES AND METHODS THEREOF” (priority 2022, published 2026):
*1 amine or outer side, *2 acyl side, *3 side chain or, on linkers, in order; H or OH if unused. Bridges are numbered along the chain shown (N, C = ends). Primed or numbered codes have the meaning given here. [ ]: non-standard residue; d: D form. PyrS2(6) = (S)-3-amino-1-((pent-4-en-1-yloxy)carbonyl)pyrrolidine-3-carboxylic acid, stapled with another olefin-containing amino acid residue through the olefin group, O=C(OCCCC=[*:3])N1CC[C@@](N[*:1])(C(=O)[*:2])C1; B5(4) = 2-amino-2-(pent-4-en-1-yl)hept-6-enoic acid, stapled through each of its two olefin groups with other olefin-containing amino acid residues, O=C(C(CCCC=[*:3])(CCCC=[*:4])N[*:1])[*:2]; PyrS2″ = (S)-3-amino-1-((pent-4-en-1-yloxy)carbonyl)pyrrolidine-3-carboxylic acid (olefin stapling residue), C=CCCCOC(=O)N1CC[C@@](N[*:1])(C(=O)[*:2])C1; PyrS2(3) = (S)-3-amino-1-((pent-4-en-1-yloxy)carbonyl)pyrrolidine-3-carboxylic acid, olefin residue, C=CCCCOC(=O)N1CC[C@@](N[*:1])(C(=O)[*:2])C1; B5(3) = 2-amino-2-(pent-4-en-1-yl)hept-6-enoic acid, two olefin arms, C=CCCCC(CCCC=C)(N[*:1])C(=O)[*:2]; 2F3MeF(3) = aromatic amino acid residue, Cc1cccc(C[C@H](N[*:1])C(=O)[*:2])c1F; Phe(3-COOH) = N[C@@H](Cc1cccc(C(=O)O)c1)C(=O)O; 2F3MeF = Cc1cccc(C[C@H](N[*:1])C(=O)[*:2])c1F; Phe(2-Cl) = N[C@@H](Cc1ccccc1Cl)C(=O)O; Bta = N[C@@H](Cc1csc2ccccc12)C(=O)O; αAllylPro = C=CC[C@@]1(C(=O)O)CCCN1; BztA = aromatic amino acid residue; 4mampiperidine = not defined here; tBuAla = CC(C)(C)C[C@H](N)C(=O)O; Biphen33COOH = not defined here; 3Thi = N[C@@H](Cc1ccsc1)C(=O)O; Cha = N[C@@H](CC1CCCCC1)C(=O)O; PyrS2(4) = not defined here; TfeGA = not defined here; GlnR = not defined here; PL3 = not defined here; B5 = not defined here

B1: I-49 (peptide)
peptide: Ac-[αAllylPro]D[tBuAla][B5(4)]D[Phe(3-COOH)]KAFL[PyrS2(6)][3Thi][Bta]K-NH2
modifications: not fully specified (residues 6, 7, bridges); printed as Ac-PL3-Asp-Npg-B5-Asp-3COOHF-[Biphen33COOH]-Lys-Ala-Phe-Leu-PyrS2-3Thi-BztA-Lys-NH2
B2: I-53 (peptide)
peptide: Ac-[αAllylPro]D[tBuAla][B5(3)]D[Phe(3-COOH)]K(diphenate)AFL[PyrS2(3)][Phe(2-Cl)][Bta]K-NH2
modifications: not fully specified (residue 6, bridges); printed as Ac-PL3-Asp-Npg-B5-Asp-3COOHF-[diphenate]Lys-Ala-Phe-Leu-PyrS2-2ClF-BztA-Lys-NH2
B3: I-114 (peptide)
peptide: Ac-[PL3]N[tBuAla][B5]D[TfeGA]AAFK[PyrS2(4)][2F3MeF][Bta][GlnR]A-NH2
modifications: staple 1-4; bridge 10-14; reading uncertain; also: PyrS2 tied into a staple, partner not placed
B4: I-111 (peptide)
peptide: Ac-[PL3]D[tBuAla][B5]D[Phe(3-COOH)][Cha]AFK[PyrS2(4)][2F3MeF][Bta][GlnR]L-NH2
modifications: staple 1-4; bridge 10-14; reading uncertain; also: PyrS2 tied into a staple, partner not placed, printed as Ac-PL3-Asp-Npg-B5-Asp-3COOHF-Cha-Ala-Phe-Lys*3-PyrS2-2F3MeF-BztA-GlnR*3-Leu-NH2
B5: I-95 (peptide)
peptide: Ac-[αAllylPro]D[tBuAla][B5(4)]D[Phe(3-COOH)][GlnR]AFL[PyrS2″][2F3MeF(3)][BztA][GlnR](4mampiperidine)A-NH2
modifications: staple 1-4 (inferred); not fully specified (bridges); printed as Ac-PL3-Asp-Npg-B5-Asp-3COOHF-GlnR-Ala-Phe-Leu-PyrS2-2F3MeF-BztA-[4mampiperidine]GlnR-Ala-NH2; reading uncertain
B6: I-110 (peptide)
peptide: Ac-[PL3]D[tBuAla][B5]D[Phe(3-COOH)][Cha]AFK[PyrS2(4)][2F3MeF][Bta][GlnR]L-NH2
modifications: staple 1-4; bridge 10-14; reading uncertain; also: PyrS2 tied into a staple, partner not placed, printed as Ac-PL3-Asp-Npg-B5-Asp-3COOHF-Cha-Ala-Phe-Lys*3-PyrS2-2F3MeF-BztA-GlnR*3-Leu-NH2
B7: I-109 (peptide)
peptide: Ac-[PL3]D[tBuAla][B5]D[Phe(3-COOH)][tBuAla]AFK[PyrS2(4)][2F3MeF][Bta][GlnR]L-NH2
modifications: staple 1-4; bridge 10-14; reading uncertain; also: PyrS2 tied into a staple, partner not placed, printed as Ac-PL3-Asp-Npg-B5-Asp-3COOHF-Npg-Ala-Phe-Lys*3-PyrS2-2F3MeF-BztA-GlnR*3-Leu-NH2
B8: I-90 (peptide)
peptide: Ac-[PL3]D[tBuAla][B5]N[Phe(3-COOH)]QAFK[PyrS2″][3Thi][BztA][GlnR]A-NH2
modifications: staple 1-4 (inferred); bridge 10-14; not fully specified (residue 10, bridges); printed as Ac-PL3-Asp-Npg-B5-Asn-3COOHF-Gln-Ala-Phe-Lys*3-PyrS2-3Thi-BztA-GlnR*3-Ala-NH2; reading uncertain; also: Lys10 and GlnR14 marked *3
B9: I-54 (peptide)
peptide: Ac-[αAllylPro]D[tBuAla][B5(3)]D[Phe(3-COOH)]K(Biphen33COOH)AFL[PyrS2(3)][Phe(2-Cl)][Bta]K-NH2
modifications: not fully specified (residue 6, bridges); printed as Ac-PL3-Asp-Npg-B5-Asp-3COOHF-[Biphen33COOH]Lys-Ala-Phe-Leu-PyrS2-2ClF-BztA-Lys-NH2; reading uncertain
B10: I-50 (peptide)
peptide: Ac-[αAllylPro]D[tBuAla][B5(4)]D[Phe(3-COOH)]K(isophthalate)AFL[PyrS2(6)][Phe(2-Cl)][Bta]K-NH2
modifications: not fully specified (residue 6, bridges); printed as Ac-PL3-Asp-Npg-B5-Asp-3COOHF-[isophthalate]-Lys-Ala-Phe-Leu-PyrS2-2ClF-BztA-Lys-NH2; also: isophthalate on Lys7 side chain is a staple, partner not given here

What follows are molecules tested against beta-catenin (human) (assay: fluorescence polarization; bin >50 nM). Conditions: not given.
Sequence of beta-catenin (human) (B6V8E6 146-665 limits assumed): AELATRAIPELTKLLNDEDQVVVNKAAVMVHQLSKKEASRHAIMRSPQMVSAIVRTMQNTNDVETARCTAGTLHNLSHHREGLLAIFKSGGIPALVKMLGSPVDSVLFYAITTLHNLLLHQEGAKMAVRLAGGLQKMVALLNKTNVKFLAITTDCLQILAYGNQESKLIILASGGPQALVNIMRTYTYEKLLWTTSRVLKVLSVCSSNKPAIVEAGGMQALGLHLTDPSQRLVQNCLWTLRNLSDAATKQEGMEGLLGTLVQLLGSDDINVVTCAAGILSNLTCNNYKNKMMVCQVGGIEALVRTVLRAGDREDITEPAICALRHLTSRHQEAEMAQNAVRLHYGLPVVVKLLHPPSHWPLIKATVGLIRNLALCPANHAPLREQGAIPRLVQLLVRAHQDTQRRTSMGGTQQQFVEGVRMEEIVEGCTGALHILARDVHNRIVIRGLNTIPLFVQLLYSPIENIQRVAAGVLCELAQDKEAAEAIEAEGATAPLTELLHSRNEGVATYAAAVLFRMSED

IC50	Molecule
< 200 nM	B1
< 200 nM	B2
< 200 nM	B3
< 200 nM	B4
< 200 nM	B5
< 200 nM	B6
< 200 nM	B7
< 200 nM	B8
< 200 nM	B9
< 200 nM	B10

The molecules below were run on DLD1 reporter (assay: reporter assay (DLD1 reporter assay)). Conditions: read-out: DLD1 4% Abs IC50; DLD1 4%.
Format: cell-based
From the text: Various technologies can be utilized for characterizing and/or assessing provided technologies (e.g., agents (e.g., various peptides), compositions, methods, etc.) in accordance with the present disclosure. As described herein, in some embodiments, a useful technology is or comprises fluorescence polarization. In some embodiments, a useful technology assesses LogP or LogD. In some embodiments, a useful technology is or comprises a CHI LogD assay. In some embodiments, a useful technology assesses solubility. In some embodiments, a useful technology is or comprises NanoBRET. In some embodiments, a useful technology is or comprises a reporter assay (e.g., DLD1 reporter assay). In some embodiments, a useful technology is or comprises alphascreen. Certain useful protocols are described in the Examples. Those skilled in the art appreciate that suitable adjustments may be made to such protocols, e.g., according to specific conditions, agents, purposes, etc.
Various technologies can be utilized to assess technologies of the present disclosure. For example, in some embodiments, solubility, LogD, interactions with targets, etc. of various agents such as stapled peptides were assessed using technologies described in WO 2022/261257 (e.g., those in its Examples). In some embodiments, solubility, shake flask LogD, and binding to beta-catenin were assessed. In some embodiments, an assay for assessing interactions, e.g., with beta-catenin, was fluorescence polarization as described in WO 2022/261257. In some embodiments, an assay was Nano-BRET target engagement assay that assessed beta-catenin/TCF4 engagement as described in WO 2022/261257. In some embodiments, an assay was a reporter assay as reported in Example 4 of WO 2022/261257. In some embodiments, an assay was a COLO320DM proliferation assay as reported in Example 4 of WO 2022/261257.

Molecule	IC50
CC(=O)N1CCC[C@]12CC=CCCCC1(CCCC=CCCCOC(=O)N3CC[C@@]4(C3)NC(=O)[C@H](CCCCNC(=O)CC[C@@H](C(=O)NC(C)(C)C(N)=O)NC(=O)[C@H](Cc3csc5ccccc35)NC(=O)[C@H](Cc3ccccc3C(F)(F)F)NC4=O)NC(=O)[C@H](Cc3ccccc3)NC(=O)[C@H](C)NC(=O)[C@H](C)NC(=O)[C@H](CN(CC(=O)O)CC(F)(F)F)NC(=O)[C@H](CC(=O)O)NC1=O)NC(=O)[C@H](CC(C)(C)C)NC(=O)[C@H](CC(=O)O)NC2=O (single isomer, unassigned) [I-126, Ac-PL3-Asp-Npg-B5-Asp-TfeGA-Ala-Ala-Phe-Lys*3-PyrS2-2F3MeF-BztA-GlnR*3-Aib-NH2]	1000 to 5000 nM
CC(=O)N1CCC[C@]12CC=CCCCC1(CCCC=CCCCOC(=O)N3CC[C@@]4(C3)NC(=O)[C@H](CCCCNC(=O)CC[C@@H](C(=O)NC(C)(C)C(N)=O)NC(=O)[C@H](Cc3csc5ccccc35)NC(=O)[C@H](Cc3ccccc3C(F)(F)F)NC4=O)NC(=O)[C@H](Cc3ccccc3)NC(=O)[C@H](C)NC(=O)[C@H](C)NC(=O)[C@H](CN(CC(=O)O)CC(F)(F)F)NC(=O)[C@H](CC(=O)O)NC1=O)NC(=O)[C@H](CC(C)(C)C)NC(=O)[C@H](CC(=O)O)NC2=O (single isomer, unassigned) [I-127, Ac-PL3-Asp-Npg-B5-Asp-TfeGA-Ala-Ala-Phe-Lys*3-PyrS2-2F3MeF-BztA-GlnR*3-Aib-NH2]	1000 to 5000 nM
CC(=O)N1CCC[C@]12CC=CCCCC1(CCCC=CCCCOC(=O)N3CC[C@@]4(C3)NC(=O)[C@H](CCCCNC(=O)CC[C@@H](C(=O)N[C@@H](CC(C)C)C(N)=O)NC(=O)[C@H](Cc3csc5ccccc35)NC(=O)[C@H](Cc3ccccc3C(F)(F)F)NC4=O)NC(=O)[C@H](Cc3ccccc3)NC(=O)[C@H](C)NC(=O)[C@H](C)NC(=O)[C@H](CN(CC(=O)O)CC(F)(F)F)NC(=O)[C@H](CC(=O)O)NC1=O)NC(=O)[C@H](CC(C)(C)C)NC(=O)[C@H](CC(=O)O)NC2=O (relative stereo) [I-128, Ac-PL3-Asp-Npg-B5-Asp-TfeGA-Ala-Ala-Phe-Lys*3-PyrS2-2F3MeF-BztA-GlnR*3-Leu-NH2]	1000 to 5000 nM
CC(=O)N1CCC[C@]12CC=CCCCC1(CCCC=CCCCOC(=O)N3CC[C@@]4(C3)NC(=O)[C@H](CCCCNC(=O)CCC[C@@H](C(=O)N[C@@H](C)C(N)=O)NC(=O)[C@H](Cc3csc5ccccc35)NC(=O)[C@H](Cc3ccsc3)NC4=O)NC(=O)[C@H](Cc3ccccc3)NC(=O)[C@H](C)NC(=O)[C@H](C)NC(=O)[C@H](Cc3cccc(C(=O)O)c3)NC(=O)[C@H](CC(=O)O)NC1=O)NC(=O)[C@H](CC(C)(C)C)NC(=O)[C@H](CC(=O)O)NC2=O (relative stereo) [I-183, Ac-PL3-Asp-Npg-B5-Asp-3COOHF-Ala-Ala-Phe-Lys*3-PyrS2-3Thi-BztA-hGlnR*3-Ala-NH2]	1000 to 5000 nM
CC(=O)N1CCC[C@]12CC=CCCCC1(CCCC=CCCCOC(=O)N3CC[C@@]4(C3)NC(=O)[C@H](CCCCNC(=O)CC[C@@H](C(=O)N[C@@H](CC(C)C)C(=O)N[C@@H](CO)C(N)=O)NC(=O)[C@H](Cc3csc5ccccc35)NC(=O)[C@H](Cc3ccccc3C(F)(F)F)NC4=O)NC(=O)[C@H](Cc3ccccc3)NC(=O)[C@H](C)NC(=O)C3(CC3)NC(=O)[C@H](Cc3cccc(C(=O)O)c3)NC(=O)[C@H](CC(=O)O)NC1=O)NC(=O)[C@H](CC(C)(C)C)NC(=O)[C@H](CC(=O)O)NC2=O (relative stereo) [I-139, Ac-PL3-Asp-Npg-B5-Asp-3COOHF-Cpg-Ala-Phe-Lys*3-PyrS2-2F3MeF-BztA-GlnR*3-Leu-Ser-NH2]	≤ 1000 nM
CC(=O)N1CCC[C@]12CC=CCCCC1(CCCC=CCCCOC(=O)N3CC[C@@]4(C3)NC(=O)[C@H](CCCCN(C(C)C)C(=O)CCC[C@@H](C(=O)N[C@@H](C)C(N)=O)NC(=O)[C@H](Cc3csc5ccccc35)NC(=O)[C@H](Cc3ccsc3)NC4=O)NC(=O)[C@H](Cc3ccccc3)NC(=O)[C@H](C)NC(=O)[C@H](C)NC(=O)[C@H](Cc3cccc(C(=O)O)c3)NC(=O)[C@H](CC(=O)O)NC1=O)NC(=O)[C@H](CC(C)(C)C)NC(=O)[C@H](CC(=O)O)NC2=O (relative stereo) [I-187, Ac-PL3-Asp-Npg-B5-Asp-3COOHF-Ala-Ala-Phe-iPrLys*3-PyrS2-3Thi-BztA-hGlnR*3-Ala-NH2]	> 5000 nM
